# In PMC7039123:
# Key:
# [1] = molecular target: R17^GAG2 (333KGRRK337 to 333DGEED337) (rodent herpesvirus Peru (RHVP)); assay: SPR
# [2] = molecular target: R17 266NAGAQ270 mutant (rodent herpesvirus Peru (RHVP)); assay: SPR
molecule,measurement,setting,value
murine CCL2^K47N (from UniProt P10148 24-148) (ligand),t1/2,[1],5.5 s
murine CCL2^L46R (from UniProt P10148 24-148) (ligand),fold longer half life than wild type CCL2,[1],2 fold
murine CCL2^L46RK47N (from UniProt P10148 24-148) (ligand),t1/2,[1],> 900 s
murine CCL3 (ligand) APYGADTPTACCFSYSRKIPRQFIVDYFETSSLCSQPGVIFLTKRNRQICADSKETWVQEYITDLELNA,fold faster kinetic off-rate than with wild type R17,[2],> 100 fold
same,t1/2,[2],11 s
